In assay [1] the target is binding of FAM19A5 protein to full-length ectodomain of LRRC4 protein (Homo sapiens, UniProt Q7Z5A7). Description: Competitive inhibition assay, plate coated with full-length ectodomain of LRRC4. As to conditions: FAM19A5 5 ng/mL; 100 nM/well coat. As for the experimental part: As described in Example 3, there appeared to be much similarity in the binding domains of the different members of the LRRC4 family. […] Then, recombinant FAM19A5 protein (5 ng/mL) was added in combination with one of the following: (i) LRRC4B (484-576) protein fragment, (ii) LRRC4B (453-576, AA) protein fragment, and (iii) synthetic FB-20 peptide. The plates were incubated at 37° C., and then, the amount of FAM19A5 protein bound to the coated LRRC4, LRRC4B, or LRRC4C proteins was measured using anti-FAM19A5 (1-65) antibody.

Assay [2] deals with APP/PS1 mice (Alzheimer mouse model). The assay is described as follows: Synaptic formation in hippocampal CA1 and CA3 of APP/PS1 mice. The class given is in vivo. As to conditions: 30 mg/kg intravenous, four consecutive weeks, compared to mutant LRRC4B protein fragment. As for the experimental part: FIGS. 16A, 16B, and 16C show the ability of LRRC4B peptide fragment (amino acid residues 453-576 of SEQ ID NO: 2; “WT”) (i.e., SEQ ID NO: 7) to promote synaptic formation in the hippocampal CA1 of APP/PS1 mice. As further described in Example 8, APP/PS1 mice were treated with the LRRC4B peptide fragment (30 mg/kg; intravenous administration) for four consecutive weeks, and then synaptic formation was assessed by fluorescence microscopy using antibodies against SYP and PSD95. Control animals received no treatment (“Cont”) or the mutant LRRC4B peptide fragment […] (i.e., comprising alanine substitutions at positions 488 and 489 of SEQ ID NO: 2; SEQ ID NO: 16). FIG. 16A provides representative fluorescent photomicrographs. FIGS. 16B and 16C show the SYP and PSD95 intensity, respectively.
FIGS. 17A, 17B, and 17C show the ability of LRRC4B peptide fragment (amino acid residues 453-576 of SEQ ID NO: 2; “WT”; SEQ ID NO: 7) to promote synaptic formation in the hippocampal CA3 of APP/PS1 mice. The animals were treated and analyzed as described in FIGS. 16A-16C. FIG. 17A provides representative fluorescent photomicrographs. FIGS. 17B and 17C show the SYP and PSD95 intensity, respectively.
Additionally, to confirm the above effect on neurite outgrowth in vivo, APP/PS1 mice (Alzheimer mouse model) were used. […] Hong et al., Science 352(6286): 712-716 (May 2016). […]

The test system of assay [3] is mouse primary hippocampal neurons. Description: Synaptic marker (SYP, PSD95) expression in mouse primary hippocampal neurons. The class given is cell-based. The settings on record: 6 or 60 nM. As for the experimental part: Next, it is generally known that neurites that outgrow from other neurites are capable of differentiating into axons, forming presynapses. Other neurites remain minor neurites and differentiate into dendrites, forming postsynapses. Therefore, whether the LRRC4B (453-576) protein fragment can also affect pre- and post-synaptic formation was also assessed. Briefly, mouse primary hippocampal neurons were cultured in vitro with the LRRC4B (453-576) protein fragment (6 or 60 nM). Control cells were treated with either DMSO (“Veh”) or the mutant LRRC4B (453-576) protein fragment which is not capable of binding to FAM19A5 protein (comprises alanine substitutions at positions 488 and 489). Then, at days 3 and 6 post initial culture, the expression level of synaptophysin (SYP; a presynaptic marker) was assessed. At day 7 post initial culture, the expression level of postsynaptic density 95 (PSD95; a postsynaptic marker) was assessed.
Primary hippocampal neurons were prepared from postnatal pups (postnatal day 1) of C57BL/6 (Nara Biotech, Seoul, Korea) as previously described by Beaudoin et al., Nature protocols 7(9): 1741-1754 (2012), which is incorporated herein by reference in its entirety. Briefly, cortices were dissected in Hank's buffered salt solution (HBSS) (Invitrogen, Carlsbad, CA, USA) and digested with 2.5% trypsin for 15 min at 37° C. […]

Data on 2 molecules can be found in US20240238445A1, “INHIBITORS AND USES THEREOF” (NEURACLE SCIENCE CO., LTD., priority 2021, published 2024).

Sequence of binding of FAM19A5 protein to full-length ectodomain of LRRC4 protein (Q7Z5A7 44-132): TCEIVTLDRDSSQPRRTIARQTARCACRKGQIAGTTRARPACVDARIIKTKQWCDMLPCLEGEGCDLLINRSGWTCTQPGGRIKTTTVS

Consider GYTYFTTVTVETLETQPGEE [FB-20], for which, in assay [1], the “inhibition of FAM19A5 binding to coated LRRC4 protein (in words)” value was “able to inhibit FAM19A5 protein from binding”.

B1: LRRC4B (453-576): LRRC4B ectodomain fragment, amino acids 453-576 of SEQ ID NO: 2; FLAG-tagged or hFc-fused (protein)
chain: VSAVDPVAAGGTGSGGGGPGGSGGVGGGSGGYTYFTTVTVETLETQPGEEALQPRGTEKEPPGPTTDGVWGGGRPGDAAGPASSSTTAPAPRSSRPTEKAFTVPITDVTENALKDLDDVMKTTK
modifications: FLAG tag or human Fc
notes: FLAG-tagged or hFc-fused
On to B1, for which the “SYP and PSD95 immunoreactivities in CA1 and CA3” value in assay [2] is “increased SYP and PSD95 immunoreactivities in CA1 and CA3”. In addition, in assay [3], the “SYP and PSD95 expression” value was “increased both SYP and PSD95 expression”; the “number of puncta colabeled with SYP and PSD95” value is “increased number of puncta that were colabeled with SYP and PSD95”.
